Measured values taken from the nanobody polyreactivity screen of Harvey et al. (2022).

Experiment: yeast display, Sf9 membrane polyspecificity reagent, FACS + sequencing; frameworks hold sequencing errors
Outline: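 A synthetic nanobody library was expressed on Saccharomyces cerevisiae BJ5465 by galactose induction for 36–48 hours. The library was stained for 1 hour at 4 °C with 10% biotinylated, detergent-solubilized Sf9 membrane reagent and enriched with streptavidin microbeads before FACS. Low and high (top ~1%) gates were set on anti-HA fluorescence for expression and streptavidin fluorescence for reagent binding, and each polyreactivity label reflects the gate of origin.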

Sequence	polyreactivity (PSR sort gate)
QVQLVESGGGLVQAGGSLRLSCAASGSTFDYNTMGWYRQAPGKERELVAVITYSGGRTYYADSVKGRFTISRDNAKNTVYLQMNSLKPEDTAVYYCNARYGYPLGHSIYYYWGQGTQVTVSS	low polyreactivity
QVQLVESGGGLVQAGGSLRLSCAASGFTFYRNAMGWYRQAPGKEREMVAAISWSGDSTYYADSVKGRFTISRDNAKNTVYLQMNSLNPEDTAVYYCAKERYFYYPWVTTYTSNYWGQGTQVTVSS	low polyreactivity
QVQLVESGGGLVPAGGSLRLSCAASGFTFTRYAMGWYRQARGKERELVAAISWNGGSTYYADSVKGRFTISRDNAKKTVYLQMNSLKPEDTAVYYCAVRFKYQWSNFGYWGQGTQVTVSS	high polyreactivity
QVLLQESGGLLQAGCSLRMSCAASGSISTALSMVWYRQAPGKERELVATISDGASTNYADSVKGRFTISRVNAKNTVYLQMNSLKPEDTEVYYCAAQSQYRPDHRYWGQGTQVTVSS	high polyreactivity
QVQLVESGGGLVQAGGSLRLSCAASGRTFWYNAMGWYRQAPGKERELVATISPGGRTYYADSVKGRFTISRDNAKNTVYLQMNSVKPEDTAVYYCDASSSFSRYGVVPYYYWGQGTQVTVSS	high polyreactivity
QVQHVDSGGGLVQAGGSLRLSCAASGRILYSYAMGWYRQAPGKERELVAVITTRGGTYYADSVKGRFTISRDNAKNTVYLQMNSLKPEDTAVYYCNARRYPSYKYDYWGQGTQVTVSS	high polyreactivity
QVQLVESGGGLVQAGGSLRLSCAASGSTFVRNAMGWYRQAPGKEREFVASISSTSGRTYYADSVKGRFTISRDNAKNTVYLQMNRLKPEDTAVYYCAADVPPKYRHRYTLYDYWGQGTQVTVSS	low polyreactivity
QVQLVESGGGLVQAGGSLRLSCAASGRIFRRYAMGWYRQAPGKERELVADITYGVDSTYYADSVKGRFTISRDNAKNTVYLQMNSLKPEDTAVYYCNADRTEDLLYRFVGVTYGYWGQGTQVSVSS	high polyreactivity
QVQLVESGGGLVQAGGSLRLSCAASGIILRYYAMGWYRQAPGKEREMVAAISYSGGRTYYADSVKGRFTISRDNAKNTVYLQMNSLKPEDTAVYYCAADYGYRIIASYDYWGQGTQVTVSS	high polyreactivity
QDQLVESGGGLVQAGGSLRLSCAASGLIFPAYTMGWSRQAQGKERELVAAISRSGGSTYYADSVKGRFTISRDNAKNTVYLQMNSLKPEDTAVYYCAAYYSGGYDYWGLGTQVTVSS	high polyreactivity
QVQLVESGGGLVQAGGSLRLSCAASGSTFVYYAMGWYRQAPGKEREFVAAINGGGRTNYADSVKGRFTISRDNAKNTVYLQMNSLKPEDTAVYDCAADGLSNVRQMDYWGQGTQVTVSS	low polyreactivity
QGQLVESGGGLVQAGGSLRLSCAASGSIFVINAMGWYRQAPGKERELVAAIDWGGDTTYYADSVKGRFTISRDNAKNTVYLQMNSLKPEDSAVYYCAAGYYLRRYYYWGQGTQVTVSS	high polyreactivity
QVQLVESGGGLVQAGGSLRLSCAASGRIFVVNAMGWYRQAPGKERELVATITRSGGITYYADSVKGRFTISRDNAKNTVYLQMNSLNPEDTAVYYCNADVLFYTYYTRGRFDFDYWGQGTQVTVSS	low polyreactivity
QVQLVESGGGLVQAGGSLRLSCAASGSTVYQYVMGRYRQAPGKVREFVAAITFSGSRTYYADSVKGRFTISRDNAKNTVYLQMNSLKPEDTAVYYCAVHSTSPRGKRYEYWGQGTQVTVSS	high polyreactivity
QVQIVESGGGLVQAGGSLRLSCAASGRIFYKNAMGWYRQAPGKERELVAAISNVGSTYYADSVKGRFTISRDNAKTTVYLQMNSLKPEDTAVYYCNKRIYHLFTYDFWGQGTQVTVSS	high polyreactivity
QVQLVESGGGLVQAGGSLRLSCAASGRTFYVNAMGWYRQAHGKERELVASITSGGSTYYADSVKGRFTISRDNAKNTVYLQMNSLKPEDTAVYYCAARWVQRLRHYIFYYWGQGTQGTVSS	high polyreactivity
QVQLVESGGGLVQAGGSLRLSCAASGRIFFNAMGWYRQAPGKEREFVAAIRTSGGTTYYADSVKGRFTISRDNAKNTVYLQMNSLKPEDTAVYYCAAWRWYYPVRNRAQYVRGDYWGQGTQVTVSS	high polyreactivity
